Laboratory results taken from patent publication US20130310265A1, “METHODS OF PREPARING CYCLIC PEPTIDES AND USES THEREOF” (NORTH CAROLINA STATE UNIVERSITY, priority 2012, published 2013).
Bridges are numbered along the chain shown (N, C = ends). Where no end group is shown, it is not given here. [ ]: non-standard residue; d: D form. Lac = C[C@H](O)C(=O)O

Tests used:
Neutravidin [1] = target: T1, Neutravidin (Gallus gallus, UniProt P02701); experiment: Chromatographic comparison of cyclic depsipeptide and cyclic peptide resins on column; settings: Toyopearl resin column, binding PBS pH 7.4, elution 0.2M Glycine pH 2.5, absorbance 280 nm
Description: Thirty-five milligrams of cyclo[Lac-A-DRASPY-E]-Toyopearl resin and cyclo[A-A-DRASPY-E]-Toyopearl (SEQ ID NO:21, 29) resin were packed in a 30 mm×2.1 mm I.D. Microbore column (0.1 mL) and swollen with 20% v/v methanol. One hundred microliters of feed sample, namely Neutravidin 5 mg/mL in PBS pH 7.4, was loaded onto the column at a flow rate of 0.05 mL/min (87 cm/h). The column was washed with 2 mL of equilibration buffer at a flow rate of 0.2 mL/min (348 cm/h). Elution was then performed with 4 mL of 0.2M glycine buffer pH 2.5 at the flow rate of 0.4 mL/min (696 cm/h). Cleaning and regeneration were performed by 4 mL of 0.85% phosphoric acid. The effluent was monitored by absorbance at 280 nm. Fractions were collected and concentrated five times by centrifugation at 4° C., 20817×g for 30 min using an Amicon® Ultra centrifugal filter (3000 MWCO, Ultracel®, Millipore, Billerica, Mass., USA).
Cyclic depsipeptides are present in nature as very selective ligands and enzyme substrates. In many cases, however, the depside (ester) bond is found to play an active role in their biological activity and the homodetic cyclic peptide version of the same sequence can partially or completely loose the target affinity. […]

Neutravidin [2] = target: T1, Neutravidin; experiment: Screening simulation by the Mondorf-Carbonell radiological procedure with 14C-radiolabeled Neutravidin; format: binding; settings: 10 mg of 50:50 mix of ligand resin and negative control resin, PBS, 5% 14C-radiolabeled Neutravidin, washed with PBS 0.2M NaCl 0.1% Tween 20, film five days
Source text: A solid phase library of reversible cyclic peptides synthesized as explained in sections 5.2 and 5.3 can be screened for on-bead ligands that bind to a target biological. […] The selected beads are then subjected to the alkaline treatment reported in section 5.7. See Mondorf and Carbonell 1998.
Neutravidin was radiolabeled according to the procedure reported by Mondorf et al. using ^14C formaldehyde by reductive amination. The prospected extent of radiolabeling was 5%. Mondorf Carbonell 1998.
Two aliquots of cyclo[Lac-A-DRASPY-E]-HMBA-ChemMatrix resin and cyclo[Lac-A-VVWVV-E]-HMBA-ChemMatrix (SEQ ID NO:20-21) resin and were mixed in a 50:50 proportion. 10 mg of the resin mix was swollen in 20% methanol in water for 30 min and then rinsed with PBS, pH 7.4 (3×5 min). The resin slur was then mixed with 200 μl of 5 mg/mL ^14C-labelled Neutravidin. After 2 hrs of incubation the supernatant was decanted and the resin was washed with PBS buffer containing 0.2M NaCl and 0.1% (w/v) Tween 20 until the radioactivity reached the baseline level. […]
(§1) The screening procedure followed the method set forth in sections 5.5 and 6.5. […] A volume of 250 mL of washing solution was necessary in order for the radioactivity to reach the baseline level. […] In both cases, the difference between the levels of radioactivity carried by the resin was enough to discriminate the ligand resin beads from the negative control beads.

Neutravidin [3] = target: T2, Neutravidin (UniProt P02701 25-152); experiment: radiological on-bead screening (autoradiography of beads in agarose)
T2 construct: In the bead screening it was radiolabelled with 14C formaldehyde by reductive amination (prospected extent 5%); In the column runs it was unlabelled, 5 mg/mL in PBS pH 7.4; also called 14C-labelled Neutravidin; target protein
Description: Two aliquots of cyclo[Lac-A-DRASPY-E]-HMBA-ChemMatrix resin and cyclo[Lac-A-VVWVV-E]-HMBA-ChemMatrix (SEQ ID NO:20-21) resin and were mixed in a 50:50 proportion. 10 mg of the resin mix was swollen in 20% methanol in water for 30 min and then rinsed with PBS, pH 7.4 (3×5 min). The resin slur was then mixed with 200 μl of 5 mg/mL ¹⁴C-labelled Neutravidin. After 2 hrs of incubation the supernatant was decanted and the resin was washed with PBS buffer containing 0.2M NaCl and 0.1% (w/v) Tween 20 until the radioactivity reached the baseline level. The washed resin was then mixed with 20 mL of 1% low melting agarose solution. The mixture was swirled to form a uniform suspension and then the slurry was poured on 16×18 cm gelbond film to form a monolayer of beads. This gel was air-dried overnight in a hood. The dried agarose gel was then exposed to photographic film for 5 days at room temperature. The photographic film was then developed, the dark spot located on the film and the corresponding beads selected.
as §1

T1 sequence (P02701 25-152): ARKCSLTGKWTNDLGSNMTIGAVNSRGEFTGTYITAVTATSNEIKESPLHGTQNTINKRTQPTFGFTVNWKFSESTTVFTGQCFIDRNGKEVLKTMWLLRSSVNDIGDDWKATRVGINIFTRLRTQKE
T2 sequence (P02701 25-152): as above

In the case of “cyclo[A-A-DRASPY-E] (AADRASPYE-{Toyopearl AF‑Amino‑650M resin}; lactam N-9; not fully specified; printed as cyclo[A-A-DRASPY-E]) [cyclo[A-A-DRASPY-E]-Toyopearl, homodetic cyclic peptide analogue of DRASPY depsipeptide on Toyopearl resin]”, the “binding chromatogram, cyclic depsipeptide vs cyclic peptide version of the same ligand sequence (FIG. 35)” value (Neutravidin [1]) is reported as “no difference”.

With “cyclo[Lac-A-DRASPY-E] [cyclo[Lac-A-DRASPY-E]-HMBA-ChemMatrix]” the “amount of radiolabeled target protein bound by resin beads (dark spot on developed radiographic film)” value (Neutravidin [2]) was “bound a sufficient amount of radiolabeled target protein to impress a dark spot”.

For “cyclo[Lac-A-DRASPY-E] [cyclo[Lac-A-DRASPY-E]-Toyopearl]”, the “binding chromatogram, cyclic depsipeptide vs cyclic peptide version of the same ligand sequence (FIG. 35)” value (Neutravidin [1]) was “no difference”.

“cyclo[Lac-A-VVWVV-E] ([Lac]AVVWVVE; bridge N-8; not fully specified (C-terminus, bridges); printed as cyclo[Lac-A-VVWVV-E]) [cyclo[Lac-A-VVWVV-E]-HMBA-ChemMatrix]” was tested, and the “amount of radiolabeled target protein bound by resin beads (dark spot on developed radiographic film)” value (Neutravidin [2]) was “bound a sufficient amount of radiolabeled target protein to impress a dark spot”.

B1: cyclo[Lac-A-VVWVV-E] (peptide)
peptide: [Lac]AVVWVVE
modifications: bridge N-8; not fully specified (C-terminus, bridges); printed as cyclo[Lac-A-VVWVV-E]
notes: also called cyclo[Lac-A-VVWVV-E]-HMBA-ChemMatrix; negative control resin
B1: no binding (Neutravidin [3]).
